We go through one molecule from PMC6581795, “Phosphorylation of FANCD2 Inhibits the FANCD2/FANCI Complex and Suppresses the Fanconi Anemia Pathway in the Absence of DNA Damage”.

The target in one data set is FANCD2 WT;FANCI (Homo sapiens;Homo sapiens?, UniProt Q9BXW9;Q9NVI1 1-1451;1-1328, |). The data set can be described thus: EMSA; untreated; EMSA: 1 nM DNA, 25 mM Tris-HCl pH 7.5, 100 mM NaCl, 1 mM EDTA, 6% glycerol, 1 mM DTT, room temperature 1 h; 4% PAGE 0.4x TBE at 4 C. The following applies: protein: recombinant;recombinant; copies: 1;1. Background: A gel shift assay detects complexes by their altered migration in electrophoresis.

Another data set addresses FANCD2-6A;FANCI (Homo sapiens;Homo sapiens?, UniProt Q9BXW9;Q9NVI1 1-1451;1-1328, S882A;T884A;S886A;S891A;T896A;S898A|). In words: EMSA; untreated; similar to WT; EMSA: 1 nM DNA, 25 mM Tris-HCl pH 7.5, 100 mM NaCl, 1 mM EDTA, 6% glycerol, 1 mM DTT, room temperature 1 h; 4% PAGE 0.4x TBE at 4 C. The following applies: protein: recombinant;recombinant; copies: 1;1.

Chain of FANCD2-6A;FANCI (Q9BXW9 whole entry S882A/T884A/S886A/S891A/T896A/S898A, chain 1 of 2): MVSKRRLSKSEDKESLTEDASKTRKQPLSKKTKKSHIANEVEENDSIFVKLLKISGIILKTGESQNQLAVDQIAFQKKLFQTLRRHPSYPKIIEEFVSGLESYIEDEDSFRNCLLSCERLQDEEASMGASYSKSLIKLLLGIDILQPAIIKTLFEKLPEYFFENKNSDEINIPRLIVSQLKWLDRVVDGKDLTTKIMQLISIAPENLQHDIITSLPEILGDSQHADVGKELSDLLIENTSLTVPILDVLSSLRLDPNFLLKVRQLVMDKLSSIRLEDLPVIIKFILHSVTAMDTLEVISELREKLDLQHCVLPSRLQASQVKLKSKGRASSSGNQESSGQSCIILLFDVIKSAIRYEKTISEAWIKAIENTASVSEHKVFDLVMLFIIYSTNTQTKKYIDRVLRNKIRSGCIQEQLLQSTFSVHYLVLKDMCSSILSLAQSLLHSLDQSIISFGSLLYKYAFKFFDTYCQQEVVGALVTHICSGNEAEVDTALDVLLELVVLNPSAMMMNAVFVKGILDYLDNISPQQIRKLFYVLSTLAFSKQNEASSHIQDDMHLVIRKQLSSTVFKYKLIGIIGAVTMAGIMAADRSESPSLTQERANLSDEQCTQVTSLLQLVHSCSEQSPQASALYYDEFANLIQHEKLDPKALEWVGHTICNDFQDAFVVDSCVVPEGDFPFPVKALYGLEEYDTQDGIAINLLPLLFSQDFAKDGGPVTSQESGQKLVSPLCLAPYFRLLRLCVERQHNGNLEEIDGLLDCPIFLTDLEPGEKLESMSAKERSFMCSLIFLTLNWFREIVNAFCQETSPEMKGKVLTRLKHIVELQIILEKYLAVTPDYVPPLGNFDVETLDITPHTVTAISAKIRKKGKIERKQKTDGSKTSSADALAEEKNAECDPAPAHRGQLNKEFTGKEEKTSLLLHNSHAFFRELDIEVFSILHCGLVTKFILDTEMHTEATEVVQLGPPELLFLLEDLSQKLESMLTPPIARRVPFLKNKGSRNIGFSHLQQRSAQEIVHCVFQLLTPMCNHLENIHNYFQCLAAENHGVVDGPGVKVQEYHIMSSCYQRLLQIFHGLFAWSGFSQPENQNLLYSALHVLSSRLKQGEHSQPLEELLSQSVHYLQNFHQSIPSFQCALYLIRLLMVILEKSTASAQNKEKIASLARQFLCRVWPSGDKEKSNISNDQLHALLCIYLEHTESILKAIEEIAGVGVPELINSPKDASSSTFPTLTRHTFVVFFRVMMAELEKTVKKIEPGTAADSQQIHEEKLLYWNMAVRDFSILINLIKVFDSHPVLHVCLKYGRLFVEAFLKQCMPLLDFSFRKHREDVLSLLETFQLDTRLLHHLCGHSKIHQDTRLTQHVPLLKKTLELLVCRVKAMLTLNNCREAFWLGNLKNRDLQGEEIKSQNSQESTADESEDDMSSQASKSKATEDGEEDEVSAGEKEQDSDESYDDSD
Chain of FANCD2-6A;FANCI (Q9NVI1 whole entry, stated change not applied, chain 2 of 2): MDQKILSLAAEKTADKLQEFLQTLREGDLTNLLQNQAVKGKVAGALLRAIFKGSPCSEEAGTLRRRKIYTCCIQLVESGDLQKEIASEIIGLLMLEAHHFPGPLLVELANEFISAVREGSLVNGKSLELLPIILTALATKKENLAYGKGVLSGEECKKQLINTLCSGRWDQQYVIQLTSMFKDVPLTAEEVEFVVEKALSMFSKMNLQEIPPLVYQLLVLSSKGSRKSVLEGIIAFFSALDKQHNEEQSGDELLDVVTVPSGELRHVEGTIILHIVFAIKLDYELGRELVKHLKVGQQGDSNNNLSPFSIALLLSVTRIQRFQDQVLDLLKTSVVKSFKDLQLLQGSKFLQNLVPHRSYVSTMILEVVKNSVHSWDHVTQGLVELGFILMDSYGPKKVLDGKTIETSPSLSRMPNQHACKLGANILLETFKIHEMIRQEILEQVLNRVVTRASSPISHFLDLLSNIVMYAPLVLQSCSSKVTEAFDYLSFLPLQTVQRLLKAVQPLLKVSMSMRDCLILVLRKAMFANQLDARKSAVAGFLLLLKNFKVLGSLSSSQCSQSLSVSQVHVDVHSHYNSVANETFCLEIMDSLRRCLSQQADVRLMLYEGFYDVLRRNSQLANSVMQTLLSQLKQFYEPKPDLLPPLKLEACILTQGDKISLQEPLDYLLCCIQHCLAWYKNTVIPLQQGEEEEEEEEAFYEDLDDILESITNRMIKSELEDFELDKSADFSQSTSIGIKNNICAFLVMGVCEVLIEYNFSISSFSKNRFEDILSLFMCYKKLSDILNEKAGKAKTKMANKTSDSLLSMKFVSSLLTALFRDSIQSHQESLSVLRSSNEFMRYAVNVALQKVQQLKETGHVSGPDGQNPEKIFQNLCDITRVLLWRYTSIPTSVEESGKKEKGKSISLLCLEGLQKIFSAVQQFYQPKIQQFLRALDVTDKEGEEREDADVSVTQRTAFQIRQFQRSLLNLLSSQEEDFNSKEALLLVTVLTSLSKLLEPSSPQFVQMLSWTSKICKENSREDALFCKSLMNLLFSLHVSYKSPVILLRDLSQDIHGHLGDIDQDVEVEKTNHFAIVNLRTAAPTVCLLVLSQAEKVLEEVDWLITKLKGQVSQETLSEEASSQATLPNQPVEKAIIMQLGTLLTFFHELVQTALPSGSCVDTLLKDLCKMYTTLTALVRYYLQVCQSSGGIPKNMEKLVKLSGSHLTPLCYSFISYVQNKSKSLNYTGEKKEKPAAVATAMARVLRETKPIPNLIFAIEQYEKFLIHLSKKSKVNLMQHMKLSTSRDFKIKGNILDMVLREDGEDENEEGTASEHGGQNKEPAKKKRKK
Chain of FANCD2 WT;FANCI (Q9BXW9 whole entry, chain 1 of 2): as the sequence (Q9BXW9 whole entry S882A/T884A/S886A/S891A/T896A/S898A, chain 1 of 2) above, with A882S, A884T, A886S, A891S, A896T, A898S counted along it
Chain of FANCD2 WT;FANCI (Q9NVI1 whole entry, chain 2 of 2): as the sequence (Q9NVI1 whole entry, stated change not applied, chain 2 of 2) above

B1: ICL14 Y-shaped DNA (mixed)
DNA 1: CATTGTGAATTCGCCTCTCTGTCTAGCCGAAGCTCGAAACGATCTTGTGC
DNA 2: GTCCATCAAAGTTCGACTGTGCGGCTAGACAGAGAGGCGAATTCACAATG
On to B1, for which the binding result in the data set with FANCD2 WT;FANCI and with FANCD2-6A;FANCI was “binds” each time.
